Assay results reported in patent US20250129150A1 (APOGEE THERAPEUTICS, published 2025).
Where two headings read alike, the source gives them in different places.

B1: Construct 133 (antibody, human IgG1, kappa, L234A L235A)
heavy: EVQLQESGPGLVKPSETLSLTCTVSGFSLNAYSVNWIRQPPGKGLEWLGMIWGDGKIVYNSALKSRLTISKDSSKNQVSLKLSSVTAADTAVYYCAGDGYYPYAMDNWGQGTTVTVSSASTKGPSVFPLAPSSKSTSGGTAALGCLVKDYFPEPVTVSWNSGALTSGVHTFPAVLQSSGLYSLSSVVTVPSSSLGTQTYICNVNHKPSNTKVDKKVEPKSCDKTHTCPPCPAPEAAGGPSVFLFPPKPKDTLYITREPEVTCVVVDVSHEDPEVKFNWYVDGVEVHNAKTKPREEQYNSTYRVVSVLTVLHQDWLNGKEYKCKVSNKALPAPIEKTISKAKGQPREPQVYTLPPSRDELTKNQVSLTCLVKGFYPSDIAVEWESNGQPENNYKTTPPVLDSDGSFFLYSKLTVDKSRWQQGNVFSCSVMHEALHNHYTQKSLSLSPG
light: DIQLTQSPSSLSASVGDRVTITCRASKSVDSYGNSFMHWYQQKPGKAPKLLIYLASNLESGVPSRFSGSGSGTDFTLTISSLQPEDFATYYCQQNNEDPRTFGGGTKVEIKRTVAAPSVFIFPPSDEQLKSGTASVVCLLNNFYPREAKVQWKVDNALQSGNSQESVTEQDSKDSTYSLSSTLTLSKADYEKHKVYACEVTHQGLSSPVTKSFNRGEC
notes: also called HC1; LC6
B2: Construct 134 (antibody, human IgG4, kappa)
heavy: EVQLQESGPGLVKPSETLSLTCTVSGFSLNAYSVNWIRQPPGKGLEWLGMIWGDGKIVYNSALKSRLTISKDSSKNQVSLKLSSVTAADTAVYYCAGDGYYPYAMDNWGQGTTVTVSSASTKGPSVFPLAPCSRSTSESTAALGCLVKDYFPEPVTVSWNSGALTSGVHTFPAVLQSSGLYSLSSVVTVPSSSLGTKTYTCNVDHKPSNTKVDKRVESKYGPPCPSCPAPEFLGGPSVFLFPPKPKDTLYITREPEVTCVVVDVSQEDPEVQFNWYVDGVEVHNAKTKPREEQFNSTYRVVSVLTVLHQDWLNGKEYKCKVSNKGLPSSIEKTISKAKGQPREPQVYTLPPSQEEMTKNQVSLTCLVKGFYPSDIAVEWESNGQPENNYKTTPPVLDSDGSFFLYSRLTVDKSRWQEGNVFSCSVMHEALHNHYTQKSLSLSLGK
light: B1 light
notes: also called HC1; LC6
B3: Construct 136 (antibody, human IgG1, kappa, L234A L235A)
heavy: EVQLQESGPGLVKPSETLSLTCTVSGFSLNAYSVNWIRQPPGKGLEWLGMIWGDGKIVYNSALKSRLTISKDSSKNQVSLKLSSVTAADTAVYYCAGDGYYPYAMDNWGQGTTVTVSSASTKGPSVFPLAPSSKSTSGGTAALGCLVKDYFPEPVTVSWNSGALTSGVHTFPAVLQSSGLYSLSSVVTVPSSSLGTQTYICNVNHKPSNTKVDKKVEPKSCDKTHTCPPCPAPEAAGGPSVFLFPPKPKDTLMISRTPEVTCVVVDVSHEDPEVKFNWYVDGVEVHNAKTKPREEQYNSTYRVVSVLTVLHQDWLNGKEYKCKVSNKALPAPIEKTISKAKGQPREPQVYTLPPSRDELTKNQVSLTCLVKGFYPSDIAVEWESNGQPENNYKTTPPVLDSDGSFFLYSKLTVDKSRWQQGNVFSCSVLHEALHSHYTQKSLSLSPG
light: B1 light
notes: also called HC1; LC6

Legend:
[1] = target: T1, Recombinant Cynomolgus IL-13 Protein, His Tag (SINO BIOLOGICAL, Cat. 11057-C07H) (cynomolgus monkey, UniProt Q5I6E4 19-132 (Macaca thibetana entry)); assay: SPR (Biacore 8K), mAb captured on Protein G chip, IL-13 as analyte
T1 construct: also called Cyno IL-13; cynomolgus monkey IL-13
T1 chain: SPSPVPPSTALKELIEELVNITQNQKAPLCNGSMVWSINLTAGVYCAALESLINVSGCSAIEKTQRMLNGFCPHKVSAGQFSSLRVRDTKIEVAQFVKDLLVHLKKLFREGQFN
Procedure, shortened: (§1)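 Antigen injected multi-cycle over freshly captured mAb; surfaces regenerated with glycine pH 1.5 for 30 sec. Double-referenced sensorgrams fit to a 1:1 binding model for apparent ka and kd; KD = kd/ka.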

[2] = target: T2, Recombinant Human IL-13 Protein, His Tag (Acro Cat. IL3-H52H4) (human, UniProt P35225 35-146); assay: as above
T2 construct: Bought protein; also called Hu IL-13; not shown: His Tag
T2 sequence (P35225 other isoform, or with tags, fused parts or gaps limits assumed): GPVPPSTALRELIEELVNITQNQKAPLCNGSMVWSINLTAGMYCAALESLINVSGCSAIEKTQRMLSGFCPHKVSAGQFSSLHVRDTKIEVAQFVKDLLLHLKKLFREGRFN
Procedure, shortened: as §1

[3] = target: T3, recombinant human C1q (human, UniProt P02745 23-245; P02746 28-253; P02747 29-245, limits assumed); assay: SPR, antibody captured on anti-kappa chip, C1q as analyte; signal relative to rituximab
T3 construct: subunit composition is from general knowledge
T3 sequence (P02745 23-245 limits assumed, chain 1 of 3): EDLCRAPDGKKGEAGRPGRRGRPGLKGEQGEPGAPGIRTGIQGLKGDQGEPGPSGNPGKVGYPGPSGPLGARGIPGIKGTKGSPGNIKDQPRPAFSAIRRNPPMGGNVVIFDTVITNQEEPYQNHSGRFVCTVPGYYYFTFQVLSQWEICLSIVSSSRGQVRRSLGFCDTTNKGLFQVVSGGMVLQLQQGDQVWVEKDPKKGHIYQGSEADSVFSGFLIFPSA
T3 sequence (P02746 28-253 limits assumed, chain 2 of 3): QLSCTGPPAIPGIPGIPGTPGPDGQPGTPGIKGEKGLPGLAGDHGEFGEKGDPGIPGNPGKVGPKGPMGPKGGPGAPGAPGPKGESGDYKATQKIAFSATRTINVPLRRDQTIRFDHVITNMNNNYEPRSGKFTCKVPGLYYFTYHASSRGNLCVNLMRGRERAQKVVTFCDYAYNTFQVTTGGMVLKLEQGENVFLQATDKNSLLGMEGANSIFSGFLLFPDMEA
T3 sequence (P02747 29-245 limits assumed, chain 3 of 3): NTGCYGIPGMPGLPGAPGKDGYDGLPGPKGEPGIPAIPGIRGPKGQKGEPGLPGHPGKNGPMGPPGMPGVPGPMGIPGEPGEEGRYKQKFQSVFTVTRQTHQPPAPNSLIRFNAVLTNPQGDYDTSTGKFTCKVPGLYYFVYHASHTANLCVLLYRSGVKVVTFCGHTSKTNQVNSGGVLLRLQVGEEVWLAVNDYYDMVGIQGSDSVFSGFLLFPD
Experimental: (§2) Binding affinity (KD) of antibodies to Fc receptors and C1q were determined through surface plasmon resonance (SPR) using a Biacore 8K. Briefly, an SPR chip functionalized with an anti-kappa light-chain antibody was used to capture purified antibodies normalized to […], at a flow rate of 10 uL/min for 90 seconds or 120 seconds. A paired channel with only buffer was used as reference. Subsequently, varying concentrations of recombinant human CD32a (167H), CD32a (167R), CD32b, CD16a (176V), CD16a (176F), FcRn, CD64, and C1q were injected over the surface with captured purified antibody as well as the reference channel. Regeneration of the chip between different concentrations of different antigens were performed with 10 mM Glycine HCl, pH 1.5 and antibody was again captured. Association and dissociation rate constants were subsequently determined through fitting to a 1:1 Langmuir binding model or steady-state analysis model, whichever applicable, using the Biacore Insight Evaluation Software from which a KD value was derived.

[4] = target: T4, hIL-13 (human, UniProt P35225 35-146, limits assumed); assay: ELISA
T4 construct: IL-13 as used in the cell assays, the ELISA, the binning study and HDX-MS/XL-MS; also called human IL-13; Hu IL-13
T4 sequence (P35225 other isoform, or with tags, fused parts or gaps limits assumed): as the sequence (P35225 other isoform, or with tags, fused parts or gaps limits assumed) above

[5] = target: T4, hIL-13; assay: cell-based or functional assay
[6] = target: T4, hIL-13; assay: cell-based or functional assay; remark: listed apart in the source
[7] = target: T4, hIL-13; assay: cell-based or functional assay; remark: listed apart in the source
[8] = target: T4, hIL-13; assay: cell-based or functional assay; remark: listed apart in the source
[9] = target: biotinylated hIL-13 (human, UniProt P35225 35-146, limits assumed, biotinylated (site not stated)); assay: FACS; blockade of biotinylated hIL-13 (0.05 ug/mL) binding to HEK293 cells expressing hIL-13Rα1/hIL-4Rα
biotinylated hIL-13, sequence (P35225 other isoform, or with tags, fused parts or gaps limits assumed): as above
Procedure, shortened: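 HEK293 cells stably co-expressing hIL-13Rα and hIL-4Rα (200,000/well) stained at 4 °C for 1 h, then a further 1 h at 4 °C in the dark. Median fluorescence intensity read by flow cytometry.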

[10] = target: T4, hIL-13; assay: cell-based or functional assay; remark: listed apart in the source
[11] = target: T5, recombinant human CD32b (human, UniProt P31994 46-217); assay: SPR, antibody captured on anti-kappa chip, recombinant human receptor as analyte
T5 sequence (looked up): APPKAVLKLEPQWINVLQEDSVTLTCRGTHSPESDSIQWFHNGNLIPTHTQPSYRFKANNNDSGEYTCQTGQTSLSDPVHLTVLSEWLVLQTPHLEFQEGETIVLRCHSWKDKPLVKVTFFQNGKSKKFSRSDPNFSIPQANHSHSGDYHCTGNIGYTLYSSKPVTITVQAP
Experimental: as §2

[12] = target: recombinant human CD16a (176V) (human, UniProt P08637 17-208); assay: as above
recombinant human CD16a (176V), sequence (P08637 17-208 F176V): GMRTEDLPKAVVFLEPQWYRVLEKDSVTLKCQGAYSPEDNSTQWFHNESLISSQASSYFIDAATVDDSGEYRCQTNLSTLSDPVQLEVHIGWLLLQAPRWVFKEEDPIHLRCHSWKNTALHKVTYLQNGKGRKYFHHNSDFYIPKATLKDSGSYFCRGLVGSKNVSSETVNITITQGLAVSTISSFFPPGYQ
Experimental: as §2

[13] = target: recombinant human CD64 (human, UniProt P12314 16-288); assay: as above
recombinant human CD64, sequence (P12314 16-288 limits assumed): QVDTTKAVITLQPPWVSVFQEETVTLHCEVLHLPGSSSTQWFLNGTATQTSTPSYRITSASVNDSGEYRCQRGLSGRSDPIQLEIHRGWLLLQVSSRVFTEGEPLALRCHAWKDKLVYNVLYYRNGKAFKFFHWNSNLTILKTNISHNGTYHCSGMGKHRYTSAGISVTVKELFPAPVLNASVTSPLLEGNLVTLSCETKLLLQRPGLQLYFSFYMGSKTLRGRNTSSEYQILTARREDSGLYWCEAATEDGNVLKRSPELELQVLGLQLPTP
Experimental: as §2

[14] = target: T6, recombinant human CD32a (167R) (human, UniProt P12318 36-218); assay: as above
T6 sequence (looked up): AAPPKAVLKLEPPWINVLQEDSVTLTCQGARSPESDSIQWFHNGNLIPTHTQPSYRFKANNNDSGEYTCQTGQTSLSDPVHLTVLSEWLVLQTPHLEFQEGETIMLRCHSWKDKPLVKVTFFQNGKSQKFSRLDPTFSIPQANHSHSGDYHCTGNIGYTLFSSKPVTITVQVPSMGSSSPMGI
Experimental: as §2

[15] = target: T4, hIL-13; assay: cell-based or functional assay; remark: listed apart in the source
[16] = target: T2, Recombinant Human IL-13 Protein, His …; assay: SPR (Biacore 8K), mAb captured on Protein G chip, IL-13 as analyte; remark: listed apart in the source
Experimental: Samples were injected in a multi-cycle manner over freshly captured mAb, by regenerating the capture surfaces with injection of glycine pH 1.5 for 30 sec at a flow rate of 30 μL/min. The data was processed and analyzed with Biacore Insight Evaluation Software Version 2.0.15.12933 (GE Healthcare) as follows. […] The responses from the two buffer blank injections were then subtracted from the reference subtracted data (2-1) to yield double-referenced data, which were fit to an 1:1 binding model to determine the apparent association (ka) and dissociation rate constants (kd). Their ratio provided the apparent equilibrium dissociation constant or affinity constant (KD=kd/ka).

[17] = target: T7, recombinant human FcRn (human, UniProt P55899 24-297; P61769 21-119); assay: SPR, antibody captured on anti-kappa chip, FcRn as analyte, pH 5.8; pH 5.8
T7 construct: also called neonatal Fc receptor
T7 sequence (P55899 24-297 limits assumed, chain 1 of 2): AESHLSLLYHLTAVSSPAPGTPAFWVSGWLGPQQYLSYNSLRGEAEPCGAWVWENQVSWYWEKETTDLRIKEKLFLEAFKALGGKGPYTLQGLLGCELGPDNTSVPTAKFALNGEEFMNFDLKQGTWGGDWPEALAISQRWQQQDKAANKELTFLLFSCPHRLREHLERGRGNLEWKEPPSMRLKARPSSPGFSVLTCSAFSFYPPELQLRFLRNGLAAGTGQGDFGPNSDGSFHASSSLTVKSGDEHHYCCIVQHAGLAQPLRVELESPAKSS
T7 sequence (P61769 21-119 limits assumed, chain 2 of 2): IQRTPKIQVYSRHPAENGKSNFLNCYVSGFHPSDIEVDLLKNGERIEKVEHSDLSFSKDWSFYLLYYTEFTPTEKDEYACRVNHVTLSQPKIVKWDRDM
Experimental: as §2

Row | Binder | Kd [1] [nM] | Kd [2] [nM] | C1q (Signal Relative to Rituximab) [3] [%] | Kd [4] [nM] | TARC Inhibition IC50 (A549 cells) [5] [nM] | TF-1 Proliferation Inhibition IC50 [6] [nM] | CCL2 Secretion IC50 (HaCaT cells) [7] [nM] | CCL26 Secretion IC50 (HaCaT cells) [7] [nM] | NTRK1 Expression IC50 (HaCaT cells) [7] [nM] | pSTAT6 Inhibition IC50 (HT-29 cells) [8] [nM] | IC50 [9] [nM] | binding result [11] | binding result [12] | binding result [13] | binding result [14] | Kd [17] [nM] | also measured
1 | B1 | 0.208 | 0.0777 | 15.9 | 0.019 | 0.86 | 0.15 | 0.077 | 0.06 | 0.062 | 0.28 | 0.89 | no binding | no binding | no binding | no binding | 150 | CD23 Expression Inhibition IC50 (human PBMCs) [10]: 0.85 nM; pSTAT6 Inhibition IC50 (human PBMCs) [10]: 0.44 nM; TF-1 Proliferation Inhibition IC50 [15]: 0.16 nM; Kd [16]: 0.077 nM
2 | B2 | 0.33 | 0.105 | 25.3 | 0.05 | 0.99 | 0.18 |  |  |  | 0.2 | 1.08 |  | no binding |  |  | 160 | Kd [11]: 8620 nM; Kd [13]: 2.8 nM; Kd [14]: 8140 nM
3 | B3 | 0.161 | 0.0698 | 25.4 | 0.018 | 0.89 | 0.15 | 0.074 | 0.052 | 0.053 | 0.3 | 1.02 | no binding |  | no binding | no binding | 90 | Kd [12]: 4670 nM
